Assay results published in US7262279B2, “Lactoferrin in the treatment of diabetes mellitus” (Agennix, Inc., priority 2003, dated 2007).

How the values were obtained:
Assay type in all cases: in vivo
[1] = system: non-insulin dependent diabetic mellitus (NIDDM) male mice (C57BLKS/J-m+/+Lepr db); experiment: Serum glucose and total body weight after oral rhLF for 20 days in diabetic mice; conditions: 65 mg/kg orally via gavage once per day for 20 days
Procedure: Five groups of 6 non-insulin dependent diabetic mellitus (NIDDM) male mice (C57BLKS/J-m+/+Lepr db) weighing 50±grams and 9-10 weeks old were given either rhLF vehicle (Placebo), or RhLF (65 mg/kg) orally via gavage for 20 days (once per day) in a volume of 0.13 ml. Blood samples were obtained from the orbital sinus on day 0 and day 20 at 90 minutes following the last administration. Animals were fasted for 3 hours prior to sampling. Serum glucose levels were determined by enzymatic method (mutaratase-GOD). Total body weight measurements were determined on days 0 and 20. Percentage differences were determined with respect to pre-treatment values and analyzed statistically with the unpaired Student' t test. Differences were considered significant at p values of less than 0.05.

[2] = system: non-insulin dependent diabetic mellitus (NIDDM) male mice (C57BLK/J-m+/Lepr db); experiment: Serum insulin (ELISA) after oral rhLF for 15 days in diabetic mice; conditions: 650 and 65 mg/kg orally once daily for 15 days, Day 15 Post, fasted 3 h
Procedure: (§1) RhLF (650 and 65 mg/kg) and vehicle/placebo (rhLF diluent buffer pH 7.0) were administered orally once daily for 15 consecutive days to groups of 4 non-insulin dependent diabetic mellitus (NIDDM) male mice. […] All animals were allowed free access to normal laboratory chow and water. Blood samples were withdrawn from the orbital sinus immediately before dosing on day 1 (Day 1 Pre) and 90 minutes after the last administration on day 15 (Day 15 Post). The animals were fasted for 3 hours prior to sampling.

[3] = system: non-insulin dependent diabetic mellitus (NIDDM) male mice C57BLK/J-m+/Lepr db; experiment: Serum glucose after oral rhLF for 15 days in diabetic db/db mice; conditions: Day 15 Post (90 min after dosing), fasted 3 h, relative to placebo
Procedure: as §1, with “(650 mg/kg” for “(650”, “first” for “last”, “sampling. Serum glucose levels were determined by enzymatic method (mutaratase-GOD). Four animals per cohort were studied. Reduction and p-value (1-tailed) were determined relative to placebo.” for “sampling.”

[4] = system: non-insulin dependent diabetic mellitus (NIDDM) male mice (C57BLKS/J-m+/+Lepr db); experiment: Serum glucose after topical rhLF gel for 20 days in diabetic mice; conditions: RhLF gel (1%) topically, 0.2 mg per mouse once per day for 20 days onto a 12 mm punch excision; day 20; with respect to pre-treatment values
Procedure: Two groups of 6 non-insulin dependent diabetic mellitus (NIDDM) male mice (C57BLKS/J-m+/+Lepr db) weighing 50+grams and 9-10 weeks old were given either rhLF vehicle (Placebo), or RhLF gel (1%) topically (0.2 mg per mouse/once per day) for 20 days applied directly onto a 12 mm punch excision. Blood samples were obtained from the orbital sinus on day 0 and day 20 at 90 minutes. The animals were fasted for 3 hours prior to sampling. Serum glucose levels were determined by enzymatic method (mutaratase-GOD). Percentage differences were determined with respect to pre-treatment values and analyzed statistically with the unpaired Student' t test. Differences were considered significant at p values of less than 0.05 (FIG. 4).

B1: RhLF: Recombinant human lactoferrin, a single chain metal binding glycoprotein; given orally in diluent buffer or topically as 1% gel (protein, UniProt P02788 20-710, looked up)
Lactotransferrin: GRRRSVQWCAVSQPEATKCFQWQRNMRKVRGPPVSCIKRDSPIQCIQAIAENRADAVTLDGGFIYEAGLAPYKLRPVAAEVYGTERQPRTHYYAVAVVKKGGSFQLNELQGLKSCHTGLRRTAGWNVPIGTLRPFLNWTGPPEPIEAAVARFFSASCVPGADKGQFPNLCRLCAGTGENKCAFSSQEPYFSYSGAFKCLRDGAGDVAFIRESTVFEDLSDEAERDEYELLCPDNTRKPVDKFKDCHLARVPSHAVVARSVNGKEDAIWNLLRQAQEKFGKDKSPKFQLFGSPSGQKDLLFKDSAIGFSRVPPRIDSGLYLGSGYFTAIQNLRKSEEEVAARRARVVWCAVGEQELRKCNQWSGLSEGSVTCSSASTTEDCIALVLKGEADAMSLDGGYVYTAGKCGLVPVLAENYKSQQSSDPDPNCVDRPVEGYLAVAVVRRSDTSLTWNSVKGKKSCHTAVDRTAGWNIPMGLLFNQTGSCKFDEYFSQSCAPGSDPRSNLCALCIGDEQGENKCVPNSNERYYGYTGAFRCLAENAGDVAFVKDVTVLQNTDGNNNEAWAKDLKLADFALLCLDGKRKPVTEARSCHLAMAPNHAVVSRMDKVERLKQVLLHQQAKFGRNGSDCPDKFCLFQSETKNLLFNDNTECLARLHGKTTYEKYLGPQYVAGITNLKKCSTSPLLEACEFLRK
- reduction in serum glucose ([1]; day 20, 90 min after last administration, with respect to pre-treatment values): 13.8%
- reduction in body weight ([1]; day 20 vs day 0): 7.7%
- serum insulin levels [2]: increase
- reduction in serum glucose ([3]; 65 mg/kg orally once daily for 15 days): 14.6%
- reduction in serum glucose ([3]; 650 mg/kg orally once daily for 15 days): 19.0%
- reduction of serum glucose [4]: 10.9%
